Laboratory results published in patent US20090075929.

Experiments:
[1] = test system: GST-wtMADD (bacterially expressed, purified)

In the case of “recombinant Akt (rAkt; protein kinase B)”, the “in vitro phosphorylation (32P autoradiography)” value (shortened to “in vitro phosphorylation”) (GST-MADD173A (T173A)) is reported as “The phosphorylation levels of MADD mutants including MADD70A, MADD173A and MADD1041A were reduced or absent”, the “in vitro phosphorylation” value (GST-MADD70A (S70A)) is reported as “The phosphorylation levels of MADD mutants including MADD70A, MADD173A and MADD1041A were reduced or absent” and the “in vitro phosphorylation” value (GST-MADD1041A (T1041A)) is reported as “The phosphorylation levels of MADD mutants including MADD70A, MADD173A and MADD1041A were reduced or absent”. The “in vitro phosphorylation” value [1] was “recombinant wild-type MADD (wtMADD) was phosphorylated by Akt”.
